Data on two molecules can be found in publication PMC6829599 (The Journal of Experimental Medicine, 2019).

The target of test [1] is recombinant PCNA (proliferating cell nuclear antigen) (human) (UniProt P12004). Briefly: SPR. In general terms: Surface plasmon resonance follows binding to a sensor surface in real time, without labels.
In test [2] the target is recombinant PCNA (proliferating cell nuclear antigen) (human, UniProt P12004 1-261). Kind of test: SPR.

Usually Kd stands for the concentration at which binding is half-saturated. Take “recombinant human Rac2 (from UniProt P15153 1-192) (natural protein; other documents disagree on this pair)”: in test [1], the Kd stood at 3.3 µM; the k (backward) (two-state model, second step) is 0.00066 s⁻¹; the k (forward) (two-state model, second step) was found to be 0.0057 s⁻¹; the ka1 (two-state model, first step) is 541 M⁻¹ s⁻¹. Also, the kd1 (two-state model, first step) in test [1] was found to be 0.017 s⁻¹.

B1: p47phox PX domain (truncated p47phox, residues 2–132) (domain or fragment)
chain: GDTFIRHIALLGFEKRFVPSQHYVYMFLVKWQDLSEKVVYRRFTEIYEFHKTLKEMFPIEAGAINPENRIIPHLPAPKWFDGQRAAENRQGTLTEYCSTLMSLPTKISRCPHLLDFFKVRPDDLKLPTDNQ
The kon is the second-order rate constant of association. As to B1, in test [2], the Kd stood at 33 µM and the kon is 85.2 M⁻¹ s⁻¹.
